The results in this text go back to doi:10.1101/2023.04.07.535877.

The target of assay [1] is glutamine synthetase type I-α from Methermicoccus shengliensis (Methermicoccus shengliensis (endogenous, ZC-1, DSM 18856)). Kind of assay: crystal structure.
The target is the same in assay [2]. In words: native gel or EMSA. A general note: In EMSA bound probe runs differently from free probe, usually more slowly.
Assay [3] addresses glutamine synthetase type I-α from Methanothermococcus thermolithotrophicus (Methanothermococcus thermolithotrophicus (endogenous, DSM 2095)). In words: crystal structure.
Assay [4] shares this target. In words: native gel or EMSA.

In general, stoichiometry N refers to the number of molecules, sites or subunits per partner or assembly. With “glutamine synthetase type I-α from Methermicoccus shengliensis (enzyme)”, the stoichiometry N in assay [1] and in assay [2] was 12 each time.

For the substance “glutamine synthetase type I-α from Methanothermococcus thermolithotrophicus (enzyme)”, the stoichiometry N in assay [3] and in assay [4] was 12 throughout.
